In patent US20260167699A1 (Chugai, published 2026):

Target: T1, FcγRIIIa extracellular domain, C-terminal His tag (human, UniProt P08637 17-208)
T1 construct: extracellular domain; also called 3a
Test: SPR, binding activity relative to GpH7-A5/GpH7-B3/GpL16-k0 (=100)

T1 sequence (P08637 other isoform, or with tags, fused parts or gaps): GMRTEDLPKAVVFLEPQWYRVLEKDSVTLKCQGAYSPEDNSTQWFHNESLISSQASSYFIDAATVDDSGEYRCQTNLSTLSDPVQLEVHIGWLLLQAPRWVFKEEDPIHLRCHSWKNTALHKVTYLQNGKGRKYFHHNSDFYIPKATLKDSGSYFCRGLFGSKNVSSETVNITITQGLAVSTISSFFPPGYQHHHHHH

Binder	He/Con 3a [%]
GpH7-A5/GpH7-B3 variant P271_09D/GpL16-k0 (antibody, human IgG1, kappa, He Ab; copies: 1 + 1 + 2) heavy 1: not shown heavy 2: not shown light: DIVMTQSPLSLPVTPGEPASISCQASESLVHSNRNTYLHWYLQKPGQSPQLLIYKVSNRFSGVPDRFSGSGSGTDFTLKISRVEAEDVGVYYCSQNTHVPPTFGQGTKVEIERTVAAPSVFIFPPSDEQLKSGTASVVCLLNNFYPREAKVQWKVDNALQSGNSQESVTEQDSKDSTYSLSSTLTLSKADYEKHKVYACEVTHQGLSSPVTKSFNRGEC	97.7
GpH7-A5/GpH7-B3 variant P329_09D/GpL16-k0 (antibody, human IgG1, kappa, He Ab; copies: 1 + 1 + 2) heavy 1: not shown heavy 2: not shown light: DIVMTQSPLSLPVTPGEPASISCQASESLVHSNRNTYLHWYLQKPGQSPQLLIYKVSNRFSGVPDRFSGSGSGTDFTLKISRVEAEDVGVYYCSQNTHVPPTFGQGTKVEIERTVAAPSVFIFPPSDEQLKSGTASVVCLLNNFYPREAKVQWKVDNALQSGNSQESVTEQDSKDSTYSLSSTLTLSKADYEKHKVYACEVTHQGLSSPVTKSFNRGEC	52.5
GpH7-A5/GpH7-B3 variant P331_02A/GpL16-k0 (antibody, human IgG1, kappa, He Ab; copies: 1 + 1 + 2) heavy 1: not shown heavy 2: not shown light: DIVMTQSPLSLPVTPGEPASISCQASESLVHSNRNTYLHWYLQKPGQSPQLLIYKVSNRFSGVPDRFSGSGSGTDFTLKISRVEAEDVGVYYCSQNTHVPPTFGQGTKVEIERTVAAPSVFIFPPSDEQLKSGTASVVCLLNNFYPREAKVQWKVDNALQSGNSQESVTEQDSKDSTYSLSSTLTLSKADYEKHKVYACEVTHQGLSSPVTKSFNRGEC	82.5
GpH7-A5/GpH7-B3 variant P331_10E/GpL16-k0 (antibody, human IgG1, kappa, He Ab; copies: 1 + 1 + 2) heavy 1: not shown heavy 2: not shown light: DIVMTQSPLSLPVTPGEPASISCQASESLVHSNRNTYLHWYLQKPGQSPQLLIYKVSNRFSGVPDRFSGSGSGTDFTLKISRVEAEDVGVYYCSQNTHVPPTFGQGTKVEIERTVAAPSVFIFPPSDEQLKSGTASVVCLLNNFYPREAKVQWKVDNALQSGNSQESVTEQDSKDSTYSLSSTLTLSKADYEKHKVYACEVTHQGLSSPVTKSFNRGEC	68.7
GpH7-A5/GpH7-B3 variant P331_03V/GpL16-k0 (antibody, human IgG1, kappa, He Ab; copies: 1 + 1 + 2) heavy 1: not shown heavy 2: not shown light: DIVMTQSPLSLPVTPGEPASISCQASESLVHSNRNTYLHWYLQKPGQSPQLLIYKVSNRFSGVPDRFSGSGSGTDFTLKISRVEAEDVGVYYCSQNTHVPPTFGQGTKVEIERTVAAPSVFIFPPSDEQLKSGTASVVCLLNNFYPREAKVQWKVDNALQSGNSQESVTEQDSKDSTYSLSSTLTLSKADYEKHKVYACEVTHQGLSSPVTKSFNRGEC	66.9
GpH7-A5/GpH7-B3 variant P271_19Q/GpL16-k0 (antibody, human IgG1, kappa, He Ab; copies: 1 + 1 + 2) heavy 1: not shown heavy 2: not shown light: DIVMTQSPLSLPVTPGEPASISCQASESLVHSNRNTYLHWYLQKPGQSPQLLIYKVSNRFSGVPDRFSGSGSGTDFTLKISRVEAEDVGVYYCSQNTHVPPTFGQGTKVEIERTVAAPSVFIFPPSDEQLKSGTASVVCLLNNFYPREAKVQWKVDNALQSGNSQESVTEQDSKDSTYSLSSTLTLSKADYEKHKVYACEVTHQGLSSPVTKSFNRGEC	84.6
GpH7-A5/GpH7-B3 variant P271_11K/GpL16-k0 (antibody, human IgG1, kappa, He Ab; copies: 1 + 1 + 2) heavy 1: not shown heavy 2: not shown light: DIVMTQSPLSLPVTPGEPASISCQASESLVHSNRNTYLHWYLQKPGQSPQLLIYKVSNRFSGVPDRFSGSGSGTDFTLKISRVEAEDVGVYYCSQNTHVPPTFGQGTKVEIERTVAAPSVFIFPPSDEQLKSGTASVVCLLNNFYPREAKVQWKVDNALQSGNSQESVTEQDSKDSTYSLSSTLTLSKADYEKHKVYACEVTHQGLSSPVTKSFNRGEC	92.5
GpH7-A5/GpH7-B3 variant P331_04F/GpL16-k0 (antibody, human IgG1, kappa, He Ab; copies: 1 + 1 + 2) heavy 1: not shown heavy 2: not shown light: DIVMTQSPLSLPVTPGEPASISCQASESLVHSNRNTYLHWYLQKPGQSPQLLIYKVSNRFSGVPDRFSGSGSGTDFTLKISRVEAEDVGVYYCSQNTHVPPTFGQGTKVEIERTVAAPSVFIFPPSDEQLKSGTASVVCLLNNFYPREAKVQWKVDNALQSGNSQESVTEQDSKDSTYSLSSTLTLSKADYEKHKVYACEVTHQGLSSPVTKSFNRGEC	70.7
GpH7-A5/GpH7-B3 variant P271_18N/GpL16-k0 (antibody, human IgG1, kappa, He Ab; copies: 1 + 1 + 2) heavy 1: not shown heavy 2: not shown light: DIVMTQSPLSLPVTPGEPASISCQASESLVHSNRNTYLHWYLQKPGQSPQLLIYKVSNRFSGVPDRFSGSGSGTDFTLKISRVEAEDVGVYYCSQNTHVPPTFGQGTKVEIERTVAAPSVFIFPPSDEQLKSGTASVVCLLNNFYPREAKVQWKVDNALQSGNSQESVTEQDSKDSTYSLSSTLTLSKADYEKHKVYACEVTHQGLSSPVTKSFNRGEC	94
GpH7-A5/GpH7-B3 variant P331_08L/GpL16-k0 (antibody, human IgG1, kappa, He Ab; copies: 1 + 1 + 2) heavy 1: not shown heavy 2: not shown light: DIVMTQSPLSLPVTPGEPASISCQASESLVHSNRNTYLHWYLQKPGQSPQLLIYKVSNRFSGVPDRFSGSGSGTDFTLKISRVEAEDVGVYYCSQNTHVPPTFGQGTKVEIERTVAAPSVFIFPPSDEQLKSGTASVVCLLNNFYPREAKVQWKVDNALQSGNSQESVTEQDSKDSTYSLSSTLTLSKADYEKHKVYACEVTHQGLSSPVTKSFNRGEC	66
GpH7-A5/GpH7-B3 variant P331_06M/GpL16-k0 (antibody, human IgG1, kappa, He Ab; copies: 1 + 1 + 2) heavy 1: not shown heavy 2: not shown light: DIVMTQSPLSLPVTPGEPASISCQASESLVHSNRNTYLHWYLQKPGQSPQLLIYKVSNRFSGVPDRFSGSGSGTDFTLKISRVEAEDVGVYYCSQNTHVPPTFGQGTKVEIERTVAAPSVFIFPPSDEQLKSGTASVVCLLNNFYPREAKVQWKVDNALQSGNSQESVTEQDSKDSTYSLSSTLTLSKADYEKHKVYACEVTHQGLSSPVTKSFNRGEC	68.4
GpH7-A5/GpH7-B3 variant P271_12R/GpL16-k0 (antibody, human IgG1, kappa, He Ab; copies: 1 + 1 + 2) heavy 1: not shown heavy 2: not shown light: DIVMTQSPLSLPVTPGEPASISCQASESLVHSNRNTYLHWYLQKPGQSPQLLIYKVSNRFSGVPDRFSGSGSGTDFTLKISRVEAEDVGVYYCSQNTHVPPTFGQGTKVEIERTVAAPSVFIFPPSDEQLKSGTASVVCLLNNFYPREAKVQWKVDNALQSGNSQESVTEQDSKDSTYSLSSTLTLSKADYEKHKVYACEVTHQGLSSPVTKSFNRGEC	87.6
GpH7-A5/GpH7-B3 variant P271_20W/GpL16-k0 (antibody, human IgG1, kappa, He Ab; copies: 1 + 1 + 2) heavy 1: not shown heavy 2: not shown light: DIVMTQSPLSLPVTPGEPASISCQASESLVHSNRNTYLHWYLQKPGQSPQLLIYKVSNRFSGVPDRFSGSGSGTDFTLKISRVEAEDVGVYYCSQNTHVPPTFGQGTKVEIERTVAAPSVFIFPPSDEQLKSGTASVVCLLNNFYPREAKVQWKVDNALQSGNSQESVTEQDSKDSTYSLSSTLTLSKADYEKHKVYACEVTHQGLSSPVTKSFNRGEC	77.8
GpH7-A5/GpH7-B3 variant P331_09D/GpL16-k0 (antibody, human IgG1, kappa, He Ab; copies: 1 + 1 + 2) heavy 1: not shown heavy 2: not shown light: DIVMTQSPLSLPVTPGEPASISCQASESLVHSNRNTYLHWYLQKPGQSPQLLIYKVSNRFSGVPDRFSGSGSGTDFTLKISRVEAEDVGVYYCSQNTHVPPTFGQGTKVEIERTVAAPSVFIFPPSDEQLKSGTASVVCLLNNFYPREAKVQWKVDNALQSGNSQESVTEQDSKDSTYSLSSTLTLSKADYEKHKVYACEVTHQGLSSPVTKSFNRGEC	71.6
GpH7-A5/GpH7-B3 variant P329_10E/GpL16-k0 (antibody, human IgG1, kappa, He Ab; copies: 1 + 1 + 2) heavy 1: not shown heavy 2: not shown light: DIVMTQSPLSLPVTPGEPASISCQASESLVHSNRNTYLHWYLQKPGQSPQLLIYKVSNRFSGVPDRFSGSGSGTDFTLKISRVEAEDVGVYYCSQNTHVPPTFGQGTKVEIERTVAAPSVFIFPPSDEQLKSGTASVVCLLNNFYPREAKVQWKVDNALQSGNSQESVTEQDSKDSTYSLSSTLTLSKADYEKHKVYACEVTHQGLSSPVTKSFNRGEC	52.7
GpH7-A5/GpH7-B3 variant P331_07I/GpL16-k0 (antibody, human IgG1, kappa, He Ab; copies: 1 + 1 + 2) heavy 1: not shown heavy 2: not shown light: DIVMTQSPLSLPVTPGEPASISCQASESLVHSNRNTYLHWYLQKPGQSPQLLIYKVSNRFSGVPDRFSGSGSGTDFTLKISRVEAEDVGVYYCSQNTHVPPTFGQGTKVEIERTVAAPSVFIFPPSDEQLKSGTASVVCLLNNFYPREAKVQWKVDNALQSGNSQESVTEQDSKDSTYSLSSTLTLSKADYEKHKVYACEVTHQGLSSPVTKSFNRGEC	60.4
GpH7-A5/GpH7-B3 variant P271_14T/GpL16-k0 (antibody, human IgG1, kappa, He Ab; copies: 1 + 1 + 2) heavy 1: not shown heavy 2: not shown light: DIVMTQSPLSLPVTPGEPASISCQASESLVHSNRNTYLHWYLQKPGQSPQLLIYKVSNRFSGVPDRFSGSGSGTDFTLKISRVEAEDVGVYYCSQNTHVPPTFGQGTKVEIERTVAAPSVFIFPPSDEQLKSGTASVVCLLNNFYPREAKVQWKVDNALQSGNSQESVTEQDSKDSTYSLSSTLTLSKADYEKHKVYACEVTHQGLSSPVTKSFNRGEC	59.2
GpH7-A5/GpH7-B3 variant P329_02A/GpL16-k0 (antibody, human IgG1, kappa, He Ab; copies: 1 + 1 + 2) heavy 1: not shown heavy 2: not shown light: DIVMTQSPLSLPVTPGEPASISCQASESLVHSNRNTYLHWYLQKPGQSPQLLIYKVSNRFSGVPDRFSGSGSGTDFTLKISRVEAEDVGVYYCSQNTHVPPTFGQGTKVEIERTVAAPSVFIFPPSDEQLKSGTASVVCLLNNFYPREAKVQWKVDNALQSGNSQESVTEQDSKDSTYSLSSTLTLSKADYEKHKVYACEVTHQGLSSPVTKSFNRGEC	55.2
GpH7-A5/GpH7-B3 variant P271_13S/GpL16-k0 (antibody, human IgG1, kappa, He Ab; copies: 1 + 1 + 2) heavy 1: not shown heavy 2: not shown light: DIVMTQSPLSLPVTPGEPASISCQASESLVHSNRNTYLHWYLQKPGQSPQLLIYKVSNRFSGVPDRFSGSGSGTDFTLKISRVEAEDVGVYYCSQNTHVPPTFGQGTKVEIERTVAAPSVFIFPPSDEQLKSGTASVVCLLNNFYPREAKVQWKVDNALQSGNSQESVTEQDSKDSTYSLSSTLTLSKADYEKHKVYACEVTHQGLSSPVTKSFNRGEC	79.8
GpH7-A5/GpH7-B3 variant P271_10E/GpL16-k0 (antibody, human IgG1, kappa, He Ab; copies: 1 + 1 + 2) heavy 1: not shown heavy 2: not shown light: DIVMTQSPLSLPVTPGEPASISCQASESLVHSNRNTYLHWYLQKPGQSPQLLIYKVSNRFSGVPDRFSGSGSGTDFTLKISRVEAEDVGVYYCSQNTHVPPTFGQGTKVEIERTVAAPSVFIFPPSDEQLKSGTASVVCLLNNFYPREAKVQWKVDNALQSGNSQESVTEQDSKDSTYSLSSTLTLSKADYEKHKVYACEVTHQGLSSPVTKSFNRGEC	98.2
GpH7-A5/GpH7-B3 variant P271_15Y/GpL16-k0 (antibody, human IgG1, kappa, He Ab; copies: 1 + 1 + 2) heavy 1: not shown heavy 2: not shown light: DIVMTQSPLSLPVTPGEPASISCQASESLVHSNRNTYLHWYLQKPGQSPQLLIYKVSNRFSGVPDRFSGSGSGTDFTLKISRVEAEDVGVYYCSQNTHVPPTFGQGTKVEIERTVAAPSVFIFPPSDEQLKSGTASVVCLLNNFYPREAKVQWKVDNALQSGNSQESVTEQDSKDSTYSLSSTLTLSKADYEKHKVYACEVTHQGLSSPVTKSFNRGEC	62.7
GpH7-A5/GpH7-B3 variant P271_16H/GpL16-k0 (antibody, human IgG1, kappa, He Ab; copies: 1 + 1 + 2) heavy 1: not shown heavy 2: not shown light: DIVMTQSPLSLPVTPGEPASISCQASESLVHSNRNTYLHWYLQKPGQSPQLLIYKVSNRFSGVPDRFSGSGSGTDFTLKISRVEAEDVGVYYCSQNTHVPPTFGQGTKVEIERTVAAPSVFIFPPSDEQLKSGTASVVCLLNNFYPREAKVQWKVDNALQSGNSQESVTEQDSKDSTYSLSSTLTLSKADYEKHKVYACEVTHQGLSSPVTKSFNRGEC	70.3
